# Assay results taken from article PMC2443151.
# Assays:
# [1] = biological target: PLA2 (phospholipase A2) from Crotalus durissus cascavella rattlesnake venom (Crotalus durissus cascavella)
# [2] = biological target: PLA2 (phospholipase A2) from Crotalus durissus cascavella rattlesnake venom (Crotalus durissus cascavella); remark: listed apart in the source
substance,measurement,setting,value
"BTL-2, isolectin from the red marine alga Bryothamnion triquetrum (natural protein)",enzymatic activity of PLA2 on 4-nitro-3-octanoyloxy-benzoic acid after incubation with BTL-2; increase against PLA2 alone,[1],23%
same,"aggregation of washed human platelets induced by PLA2 after 30 min incubation with BTL-2, at 1 μg and 3 μg (72.7% and 48.8%), compared to PLA2 alone",[2],72.7%
